The text below walks through data of article PMC7320145, “Substrate Channeling via a Transient Protein-Protein Complex: The case of D-Glyceraldehyde-3-Phosphate Dehydrogenase and L-Lactate Dehydrogenase” (Scientific Reports, 2020).

For series [1], the system named is NC(=O)C1=CN([C@@H]2O[C@H](COP(=O)(O)OP(=O)(O)OC[C@H]3O[C@@H](n4cnc5c(N)ncnc54)[C@H](O)[C@@H]3O)[C@@H](O)[C@H]2O)C=CC1. Briefly: purified protein. As to conditions: free NADH, 630 μM pyruvate, 50 mM Tris/HCl pH 7.4, 25 °C. The series is classed as biochemical, Sus scrofa.
Series [2] shares this test system. Briefly: purified protein. As to conditions: free NADH, 630 μM pyruvate, 50 mM Tris/HCl pH 7.4, 25 °C.

phLDH (porcine heart LDH) (Sus scrofa), sequence (chain, as listed by the source): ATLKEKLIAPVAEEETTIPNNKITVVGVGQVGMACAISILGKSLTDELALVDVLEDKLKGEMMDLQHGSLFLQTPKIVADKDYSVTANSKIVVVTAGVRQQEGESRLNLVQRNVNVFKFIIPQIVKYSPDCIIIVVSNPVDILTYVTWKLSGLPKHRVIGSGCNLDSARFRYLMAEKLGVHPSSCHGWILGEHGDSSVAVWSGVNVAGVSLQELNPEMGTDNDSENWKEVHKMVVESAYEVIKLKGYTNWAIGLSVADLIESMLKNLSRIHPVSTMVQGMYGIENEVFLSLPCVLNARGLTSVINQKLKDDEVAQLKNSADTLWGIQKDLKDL

On to phLDH (porcine heart LDH) (Sus scrofa), for which the Michaelis constant (Km) (as a rule, the concentration of substrate that gives half-maximal velocity) in series [1] is 7.8 ± 0.9 µM.
For the substance “rmLDH (rabbit muscle LDH) (Oryctolagus cuniculus)”, the Km in series [2] turned out to be 4.4 ± 0.4 µM.
